Results taken from US20070299011A1 (TSINGHUA UNIVERSITY, published 2007).

Molecular target: T1, myc-tagged APP-AICD(C99) (UniProt P05067 672-770)
T1 construct: domain: APP-AICD(C99); also called APP-AID(C99); not shown: myc tag
Test: co-IP from 293T lysate: anti-myc IP, anti-HA Western blot

binding result: binds
B1: HA-168 deletion mutant 118-264AA (other)
chain: GHPPTALESVMLGVGSRSVAGVCMSPITVIKTRYESGKYGYESIYAALRSIYHSEGHRGLFSGLTATLLRDAPFSGIYLMFYNQTKNIVPHDQVDATLIPITNFSCGIFAGILASLVTQPAGVIKTHMQLYPLKFQWIGQAVTLIFK
notes: not shown: HA tag
